Source: the DeepSol protein solubility set

assay: soluble on expression in E. coli; label from the status in PepcDB or PDB records

Row | Sequence | soluble on expression in E. coli
1 | MDVFDGLPDPIIVDILNKVGDVKTLLRCSSLSKRFNSLVPQSESLTLRLDHSVSDSPVVTSIFRSLFNGLVSLLSKPAKPITITTLSPSLPFKILSRFDRIRNLDVELPGGDVKLEKGAAVKWKAEFGKTLKSCVIVAFRSAGTVSSPVAVEGESDAEFVTGLKTRVVWTISALMAASSRHYLMREVVKEHEEIESLVMRDKEREGTVVMNEEGLKELRNTEARVEDEERVVKNKRSVVPSVRMSMRHAPSLKLKSGICLESATLVIVRPSGADFEVGDDAELATEAFVGDCMYGEAVVALLKCKKNALEMNSF | not soluble
2 | MDVSQWEQFAKHRSAVIRDYGMWIGLMDNNMEPIVDMPAPVSIDAPITRMTPSSCKAVFKTRVDGHIHPMVDYLIAENLAKVDEQGQLIAAAQDAVFLAIEVAQGIRNVYKGVFTVALGDQESPTLLEFNGVCEIQWTLGALPCPSAPYSWTGKWVDLNQDWAGKWSKTRTMADIKVAEVADGFTLSGAADTTIGKLISQSLQAINTMLKSKGRSLPIAVKPVTSNPTSPQLVIRPTDRFIWDEISDLALAAGVTVKCKTWWPSDPPVPGLDLKEPIVVIEITQEE | not soluble
3 | MDVTALCHKIFLHIHGLISADRYSLFLVCEDSSKDKFLISRLFDVAEGSTLEEASNNCIRLEWNKGIVGHVAAFGEPLNIKDAYEDPRFNAEVDQITGYKTQSILCMPIKNHREEVVGVAQAINKKSGNGGTFTEKDEKDFAEYLAFCGEVLHNAQLYETSLLENKRNLEHHHHHH | soluble
4 | MDYHSNGNGINGMNGSSRHSADGPSTPTHSGNGHSNGEGNSTYWETAPAEMVELADKYNFTINEGSSIQQEALELRSVIRKDLTKKLKIKSGYSRIKLITSDRRQSEFLRYELSDLNEQIADLQEDLQALEMYNSGAFDEDVMYLDNLEDCDVENGPPSKLVILQLELEKELKVKRGLEQFLRGAPDKSKVHGDSQSLLDDSRAKIAMLRMQIERLSQEAPAVEGEPKTKVELAIDDLIIRFHKEKLIMDGSRNMIRILRSKRKPDSKAVDEAMNSYVIASEKADLIKLALLKYASSLPLEHDHRKYLI | not soluble
5 | MDYREVDSTSEFVCRLEHGGDWRAQIEAFADEQGIDAGFFYGLGAVQDAELMFYDQDRTEYDSLTFDEPLEVAACMGNISHFDGERFAHTHAVLSRPDGEAVAGHLNAGTVWAGELYVRGFDTELQREHDEPTDLDLWNILEHHHHHH | not soluble
6 | MDYTASYYTDEELAKLFKAAKGDPLELPIVLAAYYGLRRSEIIGLRWDAIDFNPDDPKITIQFTVTEVNFGDGQGNVIIEKEGTKSKASKRTLPLVKPIADLLLQKKKDIENNRRLCGSCYNDKYLDFVHVNEIGERMKPNYISQHFALLLEKHGLKKIRFHDLRHSCASLLYANGVSLKQIQEWLGHSDISTTANIYTHLDYNSKIATANAILPVLFDQLEHHHHHH | not soluble
7 | MEAKLQVGVLGFGTVGSGVIHILEEHQEKISQVTGYHISVKKVLVRDLEKNRRYETKGFELTTNPSDVLDDPEIAVVVEVMGSITTAREYILQALKAGKHVVTANKDLIALHGDELVAVAQANNCDLFYEASVAGGIPILRTIVNSLAADKIQKVMGIVNGTTNFMLTKMTTEKKSYEEVLAEAQALGFAESDPTNDVDGIDAARKMVIMTRLAFGMNVNLDNVETSGIRGISPEDIEVAYQLGYKIKLVGTAEETNGTVNVNVGPVLLPKAHPLAGVNYENNAVFVTGAAVGETMFYGPGAGELPTATSVVSDLITVAKNSRLGTNGNAFNSYKHETKHTPKEQVFSKYYLRLTMDDKTGTFLKLTQIFAEAGVGFDKILQQPYDDFTATVVIVTHSTSQAQLEQAITRVKNEPEMQMLAKYSVVEG | soluble
8 | MEAKTNTFLLVAERWWNVKKTSVTEDYADDIWRSLERDIFPAIGDISITEIKAHTLVKAVQPVQARGALETVRRLCQRINEVMIYAQNTGLIDAVPSVNIGKAFELEHHHHHH | not soluble
9 | MEANTSSSGTVTGQRFAERRRSLPPGAELRQRLLKQLKELCDQIGKAYSTLVQKAALVIEPADQAVSLEPDTQRQATCITNLSDEGELWTTVYELNLGVQNLLMFIEDIRLLLLTQAQVPGPSVEENGLKTAGKGGCSPTELEGARFSDRLSSSNTHRFLEQLWDRYTP | soluble
10 | MEAPEFKDFAKTMVDFIAEYLENIRERRVLPEVKPGYLKPLIPDAAPEKPEKWQDVMQDIERVIMPGVTHWHSPKFHAYFPTANSYPAIVADMLSGAIACIGFTWIASPACTELEVVMMDWLGKMLELPAEFLACSGGKGGGVIQGTASESTLVALLGAKAKKLKEVKELHPEWDEHTILGKLVGYCSDQAHSSVERAGLLGGVKLRSVQSENHRMRGAALEKAIEQDVAEGLIPFYAVVTLGTTNSCAFDYLDECGPVGNKHNLWIHVDAAYAGSAFICPEYRHLMKGIESADSFNFNPHKWMLVNFDCSAMWLKDPSWVVNAFNVDPLYLKHDMQGSAPDYRHWQIPLGRRFRALKLWFVLRLYGVENLQAHIRRHCNFAKQFGDLCVADSRFELAAEINMGLVCFRLKGSNERNEALLKRINGRGHIHLVPAKIKDVYFLRMAICSRFTQSEDMEYSWKEVSAAADEMEQEQ | soluble
11 | MEAPTVLDVGCGDGARTLANLPPRSVGLDFSRAGLDLAAETVPDSRLVQGDMGSLPVTTDSVDAITAYHAVFHVQRDQHPEVYREFARVLRPGGTVLMTLPSGQFETVRRGWMGGSMFFSAPGRRATLDQLADAGFTETETVTATDPLGSDSEFVFATLADALEHHHHHH | not soluble
12 | MEASEEVTMVNKGDDGKSGIRYYTTIEELSRAINAGLSLQDRRMSEEEAMEAAEHIINFFGYNDRVIDNMLEPEDRDSFYTMEDIGILQTEREETTLFDGREWRIHYWILNINKIMELANMQVDYKKKITNDEYKIYDEIPDDYWKVVE | not soluble
13 | MEDESSAKYPYRESMPRAERVSMKALQDEWRHLFITRAEGENNIHNPKIPEDTNDFDDDMPIECNESEEESITGDREVFSVHHNEEDEDQEDSSQICEESEPQELPKLCRRTDKHFKELPSGLINIIKDLSLDISGLYLPQTLLTGRIDLNDEFVASIEVEDAEKSKEILRRRRERPLALRQFSHALSRAMANLRTYHYDVTTEKIERCPMRNSCKGHLKWEQMRKYRAQCKKNFKDPSLATVEDMMSK | not soluble
14 | MEDIENIEEDEYGFSRNYFLAKELGGASKRSAHKLSDIHIVDEQELRETASTIEMKHSKEISELMSDYKTMYSKWVFELRCGFGLLMYGFGSKKALVEDFASASLTDYSVVVINGYLPSVNLKQVLLALAELLSELLKCKRKSSGSLSKGQETFPSRSMDDILSFLHGPQSGDKDCFICVVVHNIDGPALRDPESQQTLARLSSCSHIRLVASIDHVNAPLLWDKKMVHKQFNWLWHHVPTFAPYNVEGVFFPLVLAQGSTAQTAKTAAIVLQSLTPNGQNVFKILAEYQLSHPDEDGMPTDDLYSASRERFFVSSQVTLNSHLTEFKDHELVKTKRNSDGQECLNIPLTSDAIRQLLLDLNQ | not soluble
15 | MEDIIFGKRSNVFDVNPENTVFVLIAGTSEVSTVPGITSAGATPELTRLTPAIDSEIIGEGKCLSSKDPPMTPEGIPTPAIVTKAILSLTNIRYIIVNGGFYAKPKTPFIETGLKPSNNPAVKTAIEDLDAAIHAGEHIGRLLDGVFENIILAESVPGGTTTAYAVLKAIGINAKTSSSMKEDPFSIKEKIAEMSFRRKLEKSPLGAVKEYGDNMMAVSLGISSSVKRSKIIFGGGTQMATVMYLDRLINGMRDRYISTTGWVYYHRTELFSDLGLSDYLAVSAMDFSGMKHPGLRYYQYGHVREGTGMGAAFLLARLMNFEAEAIYKSVDDFYEQFI | not soluble
16 | MEDYIKNWNKIISNCSFDNTYKMAWAKAIVETAISKDIDSALIISFEEIAELFLKYYWNQTIYFNLTQGSSLKKIPEALKYTKNLIDLYYAKKGDYFPQRYEKIIFEDFGIESEKNKTIKKIVKTLGQDVSWRFMNLSGETYPLYELVENQVVLSLENAKLLKKYSDFLFPMINYRWTQMLESFNHSPRISSKVRAIDEDSIKKRNNLNKFREFLDLEFSDNKRYCFYCGKEIVDDDLTIDHVIPWSFMYSDDIWNLVYCHRSENSSKSNRIPEETDVKALECRNKLLLEKLTENKISSKRVDELQLAIEKDYVKKFWISSRGLEHHHHHH | not soluble
17 | MEEKQILCVGLVVLDVISLVDKYPKEDSEIRCLSQRWQRGGNASNSCTVLSLLGAPCAFMGSMAPGHVADFLVADFRRRGVDVSQVAWQSKGDTPSSCCIINNSNGNRTIVLHDTSLPDVSATDFEKVDLTQFKWIHIEGRNASEQVKMLQRIDAHNTRQPPEQKIRVSVEVEKPREELFQLFGYGDVVFVSKDVAKHLGFQSAEEALRGLYGRVRKGAVLVCAWAEEGADALGPDGKLLHSDAFPPPRVVDTLGAGDTFNASVIFSLSQGRSVQEALRFGCQVAGKKCGLQGFDGIV | soluble
18 | MEETNAFSAFNQLLMSQNVVSPTKQPMELTNEKLMEFVRNAMQNQQGLPEVPNIIPSALPSMLSQIPTQPMPQMPVVIQTSQMNDVMGDQMLKASPSASSDMSSLDSDVADHPMTMMMQQQQDFQNPLQQLTIDSSANIAAGVNGNTEQRSSGRHETWLECFNTTKFAEYEALLFSVYVAERTDRKYDGWTYFDCLHRLQSKCRYRVRAKKQDEFYIIEEKGVHNHGAVEPVGQAGSHAGLPKTIREIVDRSYNENWPVEARTIKVDEEIQRLGLPENPRLGRQIDNRLAYLRRVKNLHETRRIQDQVNGTMVIKDPVKEAMLQALMEQNGGQLTVGQGFVDQIIANQGIPEMPIKKEEPTQPVESMEMAEQVAKPLAMNPSPDFFQFLQNQKLSHEHEQQQQQLHAAILAQAQAHAQAQAQAQQNLMESQKNIHQ | not soluble
19 | MEFQKKKQKVIQVKEIKFRPGTDEGDYQVKLRSLIRFLEEGDKAKITLRFRGREMAHQQIGMEVLNRVKDDLQELAVVESFPTKIEGRQMIMVLAPKKKQ | soluble
20 | MEFREQVLNLLAEVAENDIVKENPDVEIFEEGIIDSFQTVGLLLEIQNKLDIEVSIMDFDRDEWATPNKIVEALEELR | not soluble
21 | MEGERMNAFPSTMMDEELNLWDFLERAAALFGRKEVVSRLHTGEVHRTTYAEVYQRARRLMGGLRALGVGVGDRVATLGFNHFRHLEAYFAVPGMGAVLHTANPRLSPKEIAYILNHAEDKVLLFDPNLLPLVEAIRGELKTVQHFVVMDEKAPEGYLAYEEALGEEADPVRVPERAACGMAYTTGTTGLPKGVVYSHRALVLHSLAASLVDGTALSEKDVVLPVVPMFHVNAWCLPYAATLVGAKQVLPGPRLDPASLVELFDGEGVTFTAGVPTVWLALADYLESTGHRLKTLRRLVVGGSAAPRSLIARFERMGVEVRQGYGLTETSPVVVQNFVKSHLESLSEEEKLTLKAKTGLPIPLVRLRVADEEGRPVPKDGKALGEVQLKGPWITGGYYGNEEATRSALTPDGFFRTGDIAVWDEEGYVEIKDRLKDLIKSGGEWISSVDLENALMGHPKVKEAAVVAIPHPKWQERPLAVVVPRGEKPTPEELNEHLLKAGFAKWQLPDAYVFAEEIPRTSAGKFLKRALREQYKNYYGGA | soluble
